According to patent US20120178113A1:

Target: T1, full-length human recombinant IGFBP-4 (insulin-like growth factor binding protein-4) expressed in NS0 cell line, P22692
T1 chain: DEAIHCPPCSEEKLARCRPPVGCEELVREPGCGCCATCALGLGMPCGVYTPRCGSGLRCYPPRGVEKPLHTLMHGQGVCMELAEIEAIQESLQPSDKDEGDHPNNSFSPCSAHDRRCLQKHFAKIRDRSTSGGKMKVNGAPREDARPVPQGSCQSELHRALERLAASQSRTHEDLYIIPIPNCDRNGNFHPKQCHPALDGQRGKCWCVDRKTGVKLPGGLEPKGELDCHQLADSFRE

B1: atherosclerotic PAPP-A (pregnancy-associated plasma protein-A purified from human atherosclerotic coronary arteries) (protein)
chain: EARGATEEPSPPSRALYFSGRGEQLRLRADLELPRDAFTLQVWLRAEGGQRSPAVITGLYDKCSYISRDRGWVVGIHTISDQDNKDPRYFFSLKTDRARQVTTINAHRSYLPGQWVYLAATYDGQFMKLYVNGAQVATSGEQVGGIFSPLTQKCKVLMLGGSALNHNYRGYIEHFSLWKVARTQREILSDMETHGAHTALPQLLLQENWDNVKHAWSPMKDGSSPKVEFSNAHGFLLDTSLEPPLCGQTLCDNTEVIASYNQLSSFRQPKVVRYRVVNLYEDDHKNPTVTREQVDFQHHQLAEAFKQYNISWELDVLEVSNSSLRRRLILANCDISKIGDENCDPECNHTLTGHDGGDCRHLRHPAFVKKQHNGVCDMDCNYERFNFDGGECCDPEITNVTQTCFDPDSPHRAYLDVNELKNILKLDGSTHLNIFFAKSSEEELAGVATWPWDKEALMHLGGIVLNPSFYGMPGHTHTMIHEIGHSLGLYHVFRGISEIQSCSDPCMETEPSFETGDLCNDTNPAPKHKSCGDPGPGNDTCGFHSFFNTPYNNFMSYADDDCTDSFTPNQVARMHCYLDLVYQGWQPSRKPAPVALAPQVLGHTTDSVTLEWFPPIDGHFFERELGSACHLCLEGRILVQYASNASSPMPCSPSGHWSPREAEGHPDVEQPCKSSVRTWSPNSAVNPHTVPPACPEPQGCYLELEFLYPLVPESLTIWVTFVSTDWDSSGAVNDIKLLAVSGKNISLGPQNVFCDVPLTIRLWDVGEEVYGIQIYTLDEHLEIDAAMLTSTADTPLCLQCKPLKYKVVRDPPLQMDVASILHLNRKFVDMDLNLGSVYQYWVITISGTEESEPSPAVTYIHGSGYCGDGIIQKDQGEQCDDMNKINGDGCSLFCRQEVSFNCIDEPSRCYFHDGDGVCEEFEQKTSIKDCGVYTPQGFLDQWASNASVSHQDQQCPGWVIIGQPAASQVCRTKVIDLSEGISQHAWYPCTISYPYSQLAQTTFWLRAYFSQPMVAAAVIVHLVTDGTYYGDQKQETISVQLLDTKDQSHDLGLHVLSCRNNPLIIPVVHDLSQPFYHSQAVRVSFSSPLVAISGVALRSFDNFDPVTLSSCQRGETYSPAEQSCVHFACEKTDCPELAVENASLNCSSSDRYHGAQCTVSCRTGYVLQIRRDDELIKSQTGPSVTVTCTEGKWNKQVACEPVDCSIPDHHQVYAASFSCPEGTTFGSQCSFQCRHPAQLKGNNSLLTCMEDGLWSFPEALCELMCLAPPPVPNADLQTARCRENKHKVGSFCKYKCKPGYHVPGSSRKSKKRAFKTQCTQDGSWQEGACVPVTCDPPPPKFHGLYQCTNGFQFNSECRIKCEDSDASQGLGSNVIHCRKDGTWNGSFHVCQEMQGQCSVPNELNSNLKLQCPDGYAIGSECATSCLDHNSESIILPMNVTVRDIPHWLNPTRVERVVCTAGLKWYPHPALIHCVKGCEPFMGDNYCDAINNRAFCNYDGGDCCTSTVKTKKVTPFPMSCDLQGDCACRDPQAQEHSRKDLRGYSHG
PAPP-A-dependent cleavage of IGFBP-4, determined by Western blotting: Atherosclerotic PAPP-A was shown to cleave IGFBP-4 with the same efficiency as recombinant PAPP-A

B2: human recombinant PAPP-A (HyTest) (protein)
chain: EARGATEEPSPPSRALYFSGRGEQLRLRADLELPRDAFTLQVWLRAEGGQRSPAVITGLYDKCSYISRDRGWVVGIHTISDQDNKDPRYFFSLKTDRARQVTTINAHRSYLPGQWVYLAATYDGQFMKLYVNGAQVATSGEQVGGIFSPLTQKCKVLMLGGSALNHNYRGYIEHFSLWKVARTQREILSDMETHGAHTALPQLLLQENWDNVKHAWSPMKDGSSPKVEFSNAHGFLLDTSLEPPLCGQTLCDNTEVIASYNQLSSFRQPKVVRYRVVNLYEDDHKNPTVTREQVDFQHHQLAEAFKQYNISWELDVLEVSNSSLRRRLILANCDISKIGDENCDPECNHTLTGHDGGDCRHLRHPAFVKKQHNGVCDMDCNYERFNFDGGECCDPEITNVTQTCFDPDSPHRAYLDVNELKNILKLDGSTHLNIFFAKSSEEELAGVATWPWDKEALMHLGGIVLNPSFYGMPGHTHTMIHEIGHSLGLYHVFRGISEIQSCSDPCMETEPSFETGDLCNDTNPAPKHKSCGDPGPGNDTCGFHSFFNTPYNNFMSYADDDCTDSFTPNQVARMHCYLDLVYQGWQPSRKPAPVALAPQVLGHTTDSVTLEWFPPIDGHFFERELGSACHLCLEGRILVQYASNASSPMPCSPSGHWSPREAEGHPDVEQPCKSSVRTWSPNSAVNPHTVPPACPEPQGCYLELEFLYPLVPESLTIWVTFVSTDWDSSGAVNDIKLLAVSGKNISLGPQNVFCDVPLTIRLWDVGEEVYGIQIYTLDEHLEIDAAMLTSTADTPLCLQCKPLKYKVVRDPPLQMDVASILHLNRKFVDMDLNLGSVYQYWVITISGTEESEPSPAVTYIHGSGYCGDGIIQKDQGEQCDDMNKINGDGCSLFCRQEVSFNCIDEPSRCYFHDGDGVCEEFEQKTSIKDCGVYTPQGFLDQWASNASVSHQDQQCPGWVIIGQPAASQVCRTKVIDLSEGISQHAWYPCTISYPYSQLAQTTFWLRAYFSQPMVAAAVIVHLVTDGTYYGDQKQETISVQLLDTKDQSHDLGLHVLSCRNNPLIIPVVHDLSQPFYHSQAVRVSFSSPLVAISGVALRSFDNFDPVTLSSCQRGETYSPAEQSCVHFACEKTDCPELAVENASLNCSSSDRYHGAQCTVSCRTGYVLQIRRDDELIKSQTGPSVTVTCTEGKWNKQVACEPVDCSIPDHHQVYAASFSCPEGTTFGSQCSFQCRHPAQLKGNNSLLTCMEDGLWSFPEALCELMCLAPPPVPNADLQTARCRENKHKVGSFCKYKCKPGYHVPGSSRKSKKRAFKTQCTQDGSWQEGACVPVTCDPPPPKFHGLYQCTNGFQFNSECRIKCEDSDASQGLGSNVIHCRKDGTWNGSFHVCQEMQGQCSVPNELNSNLKLQCPDGYAIGSECATSCLDHNSESIILPMNVTVRDIPHWLNPTRVERVVCTAGLKWYPHPALIHCVKGCEPFMGDNYCDAINNRAFCNYDGGDCCTSTVKTKKVTPFPMSCDLQGDCACRDPQAQEHSRKDLRGYSHG
PAPP-A-dependent cleavage of IGFBP-4, determined by Western blotting: Atherosclerotic PAPP-A was shown to cleave IGFBP-4 with the same efficiency as recombinant PAPP-A
